Numbering of substitutions follows the chain as printed. Names may count otherwise.
B1: Synechococcus elongatus ClpS1: ClpS protein, SEQ ID NO: 105 (protein, listed as Synechococcus elongatus)
chain: MAVETIQKPETTTKRKIAPRYRVLLHNDDFNPMEYVVMVLMQTVPSLTQPQAVDIMMEAHTNGTGLVITCDIEPAEFYCEQLKSHGLSSSIEPDD
B2: PS382: ClpS protein, SEQ ID NO: 15 (protein)
chain: MSDSPVIKEIKKDNIKEADEHEKKEREKETSAWKVILYNDDIHNFTYVTDVIVKVVGQISKAKAHTITVEAHSTGQALILSTWKSKAEKYCQELQQNGLTVSIIHESQLKDKQKK
B3: PS395: ClpS protein, SEQ ID NO: 23 (protein)
chain: MTVSQSKTQGAPAAQSATELEYEGLWRVVVLNDPVNLMSYVVLVFKKVFGFDETTARKHMLEVHEQGRSVVWSGMREKAEAYAFTLQQWHLTTVLEQDEVR
B4: Plasmodium falciparum ClpS: ClpS protein, SEQ ID NO: 110 (protein, listed as Plasmodium falciparum)
chain: MFKDLKPFFLCIILLLLLIYKCTHSYNIKNKNCPLNFMNSCVRINNVNKNTNISFPKELQKRPSLVYSQKNFNLEKIKKLRNVIKEIKKDNIKEADEHEKKEREKETSAWKVILYNDDIHNFTYVTDVIVKVVGQISKAKAHTITVEAHSTGQALILSTWKSKAEKYCQELQQNGLTVSIIHESQLKDKQKK
B5: PS394: ClpS protein, SEQ ID NO: 22 (protein)
chain: MAERRDTGDDEGTGLGIATKTRSKTKKPTPYRVLMLNDDYTPMEFVVLCLQRFFRMNMEEATRVMLHVHQKGVGVCGVFSYEVAETKVGQVIDFARANQHPLQCTLEKA
B6: PS392: ClpS protein, SEQ ID NO: 20 (protein)
chain: MSVEIIEKRSTVRKLAPRYRVLLHNDDFNPMEYVVQTLMATVPSLTQPQAVNVMMEAHTNGMGLVIVCALEHAEFYAETLNNHGLGSSIEPDD
B7: PS388: ClpS protein, SEQ ID NO: 16 (protein)
chain: MVTTLSADVYGMATAPTVAPERSNQVVRKTYPNYKVIVLNDDFNTFQHVAECLMKYIPGMSSDRAWDLTNQVHYEGQAIVWVGPQEPAELYHQQLRRAGLTMAPLEAA
B8: PS368: ClpS protein, SEQ ID NO: 1 (protein)
chain: MASAPSTTLDKSTQVVKKTYPNYKVIVLNDDLNTFDHVANCLIKYIPDMTTDRAWELTNQVHYQGQAIVWTGPQEQAELYHQQLRREGLTMAPLEAA
B9: PS378: ClpS protein, SEQ ID NO: 11 (protein)
chain: MXPQEVEEVSFLESKEHEIVLYNDDVNTFDHVIECLVKICNHNYLQAEQCAYIVHHSGKCGVKTGSLEELIPKCNALLEEGLSAEVI
modifications: not fully specified; X: residue not identified in the source
B10: PS389: ClpS protein, SEQ ID NO: 17 (protein)
chain: MLNSAAFKAASASPVIAPERSGQVTQKPYPTYKVIVLNDDFNTFQHVHDCLVKYIPGMTSDRAWQLTHQVHNDGQAIVWVGPQEQAELYHQQLSRAGLTMAPIEAA
B11: PS390: ClpS protein, SEQ ID NO: 18 (protein)
chain: MLSIAAVTEAPSKGVQTADPKTVRKPYPNYKVIVLNDDFNTFQHVSSCLLKYIPGMSEARAWELTNQVHFEGLAVVWVGPQEQAELYYAQLKNAGLTMAPPEPA
B12: PS391: ClpS protein, SEQ ID NO: 19 (protein)
chain: MGQTVEKPRVEGPGTGLGGSWRVIVRNDDHNTFDHVARTLARFIPGVSLERGHEIAKVIHTTGRAVVYTGHKEAAEHYWQQLKGAGLTMAPLEQG
B13: PS393: ClpS protein, SEQ ID NO: 21 (protein)
chain: MSDEDGEDGDENAVGIATRTRTRTKKPTPYRVLLLNDDYTPMEFVVLVLQRFFRMSIEDATRVMLQVHQKGVGVCGVFTYEVAETKVSQVIDFARQNQHPLQCTLEKA
B14: Escherichia coli ClpS: ClpS protein, SEQ ID NO: 108 (protein, listed as Escherichia coli)
chain: MGKTNDWLDFDQLAEEKVRDALKPPSMYKVILVNDDYTPMEFVIDVLQKFFSYDVERATQLMLAVHYQGKAICGVFTAEVAETKVAMVNKYARENEHPLLCTLEKA
B15: Escherichia coli ClpS M40A: ClpS protein, SEQ ID NO: 109 (protein, listed as Escherichia coli)
chain: B14 chain with M40A
B16: PS380: ClpS protein, SEQ ID NO: 13 (protein)
chain: MGDIYGESNPEEVSCIDSLSEEGNELILFNDNIHTFEYVIDCLVAICSLSYEQASNCAYIVDRKGLCTVKHGSYDELLIMYHALVEKDLKVEIR
B17: PS509: UBR-box domain homolog, SEQ ID NO: 137 (protein)
chain: MICGHGFKTGEPTYSCRDCATDPTCVLCISCFQKSPHREHRYKMSASGGGGYCDCGDPEAWKIEPFCEQHKP
modifications: Lottia gigantean
B18: PS503: UBR-box domain homolog, SEQ ID NO: 131 (protein, listed as Hydra vulgaris)
chain: MFCGRLFKVGDPTYTCKDCAADPTCVFCHDCFHQSVHTKHKYKLFASQGRGGYCDCGDKEAWTNDPACNKHKE
B19: PS502: UBR-box domain homolog, SEQ ID NO: 130 (protein, listed as Helobdella robusta)
chain: MVCLKVFKLGEPTYSCRSVTCGMDPTCVLCVDCFQNSSHKLHKYKMSTSGGGGYCDCGDLEAWKADPLCDLHKL
B20: PS511: UBR-box domain homolog, SEQ ID NO: 139 (protein, listed as Habropoda laboriosa)
chain: MICGKVFKMGEATYSCKECGVDPTCVLCADCFKQSAHRHHKYRMGTSSGGGFCDCGDIEAWKKEPFCNTHLA
B21: PS508: UBR-box domain homolog, SEQ ID NO: 136 (protein)
chain: MLCGRVFKEGETVYSCRDCAIDPTCVLCIECFQKSVHKSHRYKMHASAGGGFCDCGDLEAWKTGPCCSQHDP
modifications: Anabarilius graham
B22: PS512: UBR-box domain homolog, SEQ ID NO: 140 (protein, listed as Mastacembelus armatus)
chain: B21 chain with I29M, E30D, K34D, L58V, T63I, C66Y, Q69K
B23: PS501: UBR-box domain homolog, SEQ ID NO: 129 (protein, listed as Amanita thiersii)
chain: MICGQIIGKGESCFRCRDCGLDESCVMCSQCFHATDHINHNVSFFVSQQPGGCCDCGDEEAWKKPMNCPYHPP
B24: PS507: UBR-box domain homolog, SEQ ID NO: 135 (protein, listed as Sparassis crispa)
chain: MPCGHIFKKGESCFRCKDCALDDSCVLCSKCFEATDHANHNVSFFIAQQSGGCCDCGDIEAWLVPIDCPFHPV
B25: PS506: UBR-box domain homolog, SEQ ID NO: 134 (protein, listed as Capitella teleta)
chain: MLCGKVFKMGELTYSCRDCGTDPTCVLCMDCFQHSAHKKHRYKMAASGGGGYCDCGDREAWKAEPFCDVHKR
B26: PS510: UBR-box domain homolog, SEQ ID NO: 138 (protein, listed as Camponotus floridanus)
chain: MICGRMFKMGEPTYSCRQCGMDSTCVLCVDCFKQSAHRNHKYKMGTSSGGGCCDCGDTEAWKNEPFCKIHLA
B27: PS513: UBR-box domain homolog, SEQ ID NO: 141 (protein, listed as Pyrenophora seminiperda)
chain: MPCGHIFKNGEATYRCKTCTADDTCVLCARCFDASDHEGHQVFVSVSPGNSGCCDCGDDEAWVRPVHCNIHSA
B28: Saccharomyces cerevisiae GID10: SEQ ID NO: 125 (protein, listed as Saccharomyces cerevisiae)
chain: MTSLNIMGRKFILERAKRNDNIEEIYTSAYVSLPSSTDTRLPHFKAKEEDCDVYEEGTNLVGKNAKYTYRSLGRHLDFLRPGLRFGGSQSSKYTYYTVEVKIDTVNLPLYKDSRSLDPHVTGTFTIKNLTPVLDKVVTLFEGYVINYNQFPLCSLHWPAEETLDPYMAQRESDCSHWKRFGHFGSDNWSLTERNFGQYNHESAEFMNQRYIYLKWKERFLLDDEEQENQMLDDNHHLEGASFEGFYYVCLDQLTGSVEGYYYHPACELFQKLELVPTNCDALNTYSSGFEIA
B29: PS504: UBR-box domain homolog, SEQ ID NO: 132 (protein, listed as Galleria mellonella)
chain: MLCGKVFKQGEPAYSCRECGMDNTCVLCVECFKVSPHRHHKYKMGQSGGGGCCDCGDTEAWKRDPFCERHAK

system: amino acid at a terminal position of a polypeptide; experiment: Amino acid binding preference of recognition proteins (Tables 1 and 2); conditions: Table 1, ClpS proteins; amino acid identity at a terminal position of a polypeptide; inferred from literature and/or demonstrated by the inventors
From the text: It should be appreciated that these sequences and other examples described herein are meant to be non-limiting, and recognition molecules in accordance with the application can include any homologs, variants thereof, or fragments thereof minimally containing domains or subdomains responsible for peptide recognition.

| Molecule | Binding Pref. |
| --- | --- |
| B1 | F, W, Y |
| B2 | F, Y, W, L |
| B3 | F, Y, W, L |
| B4 | F, W, Y, L |
| B5 | F, Y, W, L |
| B6 | F, Y, W |
| B7 | F, Y, L |
| B8 | F, Y, W, L |
| B9 | F, Y, W, L |
| B10 | F, Y, L |
| B11 | F, Y, L |
| B12 | F, Y, W, L |
| B13 | F, Y, W, L |
| B14 | F, W, Y, L |
| B15 | F, W, Y, L |
| B16 | F, W |

system: amino acid at a terminal position of a polypeptide; experiment: not given; conditions: Table 2; amino acid identity at a terminal position (phosphotyrosine also internal); inferred from literature and/or demonstrated by the inventors; cited from earlier work

| Molecule | Binding Pref. |
| --- | --- |
| B17 | K, R, H |
| B18 | K, R, H |
| B19 | K, R, H |
| B20 | K, R, H |
| B21 | K, R, H |
| B22 | K, R, H |
| B23 | K, R, H |
| B24 | K, R, H |
| B25 | K, R, H |
| B26 | K, R, H |
| B27 | K, R, H |
| B28 | P, M, V |
| B29 | K, R, H |

From patent publication US12065466B2, “Methods and compositions for protein sequencing” (Quantum-Si Incorporated, priority 2020, dated 2024)
